# Assay results: the DeepSol protein solubility set
# Assay: soluble on expression in E. coli; label from the status in PepcDB or PDB records
row,Sequence,soluble on expression in E. coli
1,MGSDKIHHHHHHGQNQNKIQEAMANYDYETAVELINKEPPTIPLLMQKAKALKGIGSNAEALRSIRQVIAEDSTNQQAHIEAAECCKAMAKYNDALDYYRKAISLNPKNKYARLQFINLLCNTKNYAEAFGESSMMSETDSSAVVLHLQAQSLEGMQQILPAIGCYEVIQDKYPDDYLAAAKLGNLNIVAGYPEYAIQATERYRERDSTNLIVNQQNALAYCHAEQYPTAIKRYEKLCQQGDSSTQTLYYLGVSYYADEYYYEAHACFSKLQKEMEENPNLLYYLGRCCAKTSWKKEGIEHLEKAIELTIPKDSTMIRLYKGLVDCCKLAQDTPKQIQALRELYKYDKTNHKLLYDIAWNYSYQLKDNKSAERYLQAFLKTRKANARKEEPVSEKGELVLGLENYYNAAENWLKDLQKEKFFKEGIPLESQKQ,not soluble
2,MGHHHHHHSHMEGTYITSEHSYQKPQSFGQDCKSLADPGSSDDDDVSSLEEEQEFHMRSKNSLQYSAKEHGMPEKNPAEGNTVFVYNDKKGTEDPGDSHLQWQLNLLTHIENVQNEVTSRMDLIEKEVDVLESWLDFTGELEPPDPLARLPQLKRHIKQLLIDMGKVQQIATLCSV,not soluble
3,MKDFITEAWLRANHTLSEGAEIHLPADSRLTPSARELLESRHLRIKFIDEQGRLFVDDEQQQPQPVHGLTSSDEHPQACCELCRQPVAKKPDTLTHLSAEKMVAKSDPRLGFRAVLDSTIALAVWLQIELAEPLGCQAIVGLSDEDLHRLSHQPLRYLGHDHLVPEASHGRDAALLNLLRTKVREAETVAAQVFITRSFEVLRPDILQALNRLSSTVYVMMILSVTKQPLTVKQIQQRLGETQ,not soluble
4,MSLSKIIPFREEIFHQINQILESQKAFIFLWGKSGSGKSVLLQRLAKKYNVDFINENFKDQSFLKEKIEFLISQGQSLIILDEVGMYDYAMLESIRIYSDSISFVLSSHKKLNILKKEHFKSRLSACFKLKNISLLELDDYIKLKFGMNFSNKCLKFLQKISQGNLRYIDKTLKSFYEINSFFDKNKSQEYILKLSALENGLLREGHHHHHH,soluble
5,MSLANLKVNLYGMEFLNPIMTAAGPGAKDGALCQEAAKGGAGAICTKTISVLPADVPRPCMAKTNSGFLNTELWSELPKEQWIEEEYKKVKETGLPVIVSMGYSAEQIAEVAPLVKPYADAVELSTHYVGTDVAPIVNALKAAKAVLDVPVFMKMSPHTDIQTIAKAVEEAGADGLVMINSFGPCMAIDVNTGYPIMGSKAGYGWLSGAPIRPLAIRCIYEASQVVNIPIIGVGGITCGKDVAEMMMAGASAVQVCTEAILKGPSIYGKIAKELNEFLDENGEGHHHHHH,not soluble
6,MNTTGETTQPFYSHCDMNDPLCRAERLRTQFDYYRWHSLQPDDNDDVDTYTTDIATRIGKTQRYVCDHLDAIYYLTQLPQLHTVYQQLWHLDDTRLIAITRIISALPTTYYDAIDTHLTRWLTPTQPAQTIPSTRAITRFLRKTITHLGFHLDNTRKPEQYVYIYDAGHGLAGIDALIHAGVAEMFETTLRSIKKTHSCDDSTALQLLLEDKTSVVINVYDTGTGITYTPQGTALPQVPEHLVIRVLGDADVAVSTGYRFTEAMRRFIQGRDGVCRFPGCGVPAQWCDIDHVEEYDLGGVTGAVNAQCLCRHHHNVKTSRRVDCEIGAGGVVTWQIGDRRVVTTPEGVLAGQTFRQRREKKIKKAA,not soluble
7,MRHAVHQELIDTNPAANLGGVTTPPVRRHYPALPLERLPELLERIGAYHQGRELTRHAVLLMLHVFIRSSELRFARWSEIDFTNRVWTIPATREPIIGVRYSGRGAKMRMPHIVPLSEQSIAILKQIKDITGNNELIFPGDHNPYKPMCENTVNKALRVMGYDTKKDICGHGFRAMACSALMESGLWAKDAVERQMSHQERNTVRMAYIHKAEHLEARKAMMQWWSDYLEACRESYAPPYTIGKNKFIP,not soluble
8,MGSDKIHHHHHHMEPNDAVVGVDVSKEHLDVYLMPTGDQKRVTNDDAGCAELTTWLITNAPCRIVLEATGGLEMLAVSTLSAAGLPVVVVNPRQVRNFAKACGLLAKTDILDAKIIARFAQAIKPEIRPLKDETSQNLAALLARRRQLVEMLVAEKNRVISAAPTVRKGIMTHIAWLTQQIDDVDKDISTLIQSSESWKAKEEILTSVKGIGPVTAATILAALPELGTISRQQLGALVGVCPYNRDSGKFRGKRAISGGRATVRSVLYMATLCAARFNPVIKAFYQRLTSAGKLHKVAITACMRKLLTILNAMVKNNQKWDHSKFTPLLH,not soluble
9,MSEGWNIAVLGATGAVGEALLETLAERQFPVGEIYALARNESAGEQLRFGGKTITVQDAAEFDWTQAQLAFFVAGKEATAAWVEEATNSGCLVIDSSGLFALEPDVPLVVPEVNPFVLTDYRNRNVIAVPDSLTSQLLAALKPLIDQGGLSRISVTSLISASAQGKKAVDALAGQSAKLLNGIPIDEEDFFGRQLAFNMLPLLPDSEGSVREERRIVDEVRKILQDEGLMISASVVQAPVFYGHAQMVNFEALRPLAAEEARDAFVQGEDIVLSEENEFPTQVGDASGTPHLSVGCVRNDYGMPEQVQFWSVADNVRFGGALMAVKIAEKLVQEYLY,soluble
10,MNCIIAQSGGPTSVINASVYGLVKANKKLNLYENVYGGLNGIEGILNKKIINLSDLDELQLERFKNSPASGLGSCRYKLKPLSESEDEYLKLLDILNSLNIKAFFYVGGNDSMDTTAKLNAFAKAKNIDIKFFGIPKTIDNDLMHTDHTPGFGSAAKFISTAVLETYLDSKVYTNNGIFIIETMGRDTGWLAASGALATINGNKCADLVYLPERAFSVQSFLTDVARIFKEKKHVYIVASEGLKDENGKFLTETAPNDDSFGHAQLGGVGAYLKNLIIQASITHRVKSLELNTLQRCSMHASSKIDVNEAVMVGQAALEASINSEGGYMVAIRRDSSFPYKSSTFLIEADKIANNIKYFPSEWINEEGNNITEEGLLYLKPLISDFEDRDSLPLYHSFVLLEHHHHHH,not soluble
11,VKNKKFTIIGGDLRSVKLAELIVAEGNKVNIYGFKNANFEIGIEESEDLDHAIGEADVIVGPTPCSTDNETINTPFHSQKIFIKDIFKKMNKSQLFIAGRITDKIAQLADVYNVYSVDLLEREEMAVLNAIPTAEGAIQIAMEEMPITLHGSNALILGFGRIGKILAKMLHGIGSNVYVEARKYSDLAWIESYGYKPVFITELESYIDRANVIFNTIPSIVLDENLLRKVNKDCLLIDLASKPGGIDFEKAKEMGLKTIWALSLPGKVAPVTAAKFIKDTISNIIDELGV,not soluble
12,MGHHHHHHSHEKMNGSHRDQGSSALSGVGGIRLPNGKLKCDICGIICIGPNVLMVHKRSHTGERPFQCNQCGASFTQKGNLLRHIKLHSGEKPFKCHLCNYACRRRDALTGHLRTHSVGKPHKCGYCGRSYKQRSSLEEHKERCHNYLESMGLPGTLYPVIKEETNHSEMAEDLCKIGSERSLVLDRLASNVAKRKSSMP,soluble
13,MGGMHAHVILAAGQGTRMRSRLPKVLHPLLGKPMLLYALEAALALKPERLVVVVGHGGEKVVEALEGYPVEVAWQKEQLGTAHALLQAEGLLRDFPGPFLVTQGDTPLLSPRTLEALLRRVREGAGMALLTAELPDPTGYGRILREGEEVLGNVEEKDAPPEVRAIREVNAGAYAFDGFLFQALKEVRNENAAREYYLPDLIAIYRAHGRRVLAVRGVAEEALGVNTREELARVEGVLLRRLRAEWMGKGVRMILPETIYLEPSVELAPDVTLWPGAVLKGKTRIGEGCEVGPYAVLEDTVLEPGAKVLAHTVAQGAHLHPGASAGPFARLRPGAVLMEEVHVGNFVEVKNSLLHKGVKAGHLAYLGDAEVGEGTNIGAGVITANYDGKRKHKTEIGKKAFIGSNSVLVAPVRVGDRALVGAGSVITQDVPEGALAVARERQKNLEGYALRKLGEG,soluble
14,MTQEEMKHIDPSGNHTISHLCEAWKLSMRYQVKPSTFACYATIIQKHIRPSIGTVEMEEMNNEILSEFILDRQSRGLSANTMRLILFLLKSIIRAGERRGICPAEPLDFFLPKDRGYEMKLLSQDNRRKLLSWLAGCRTNFELGLLLSLSTGIRVGELCGMKWEDVDLEEGVLHIRRTVSRIRNTDQKNTAAKTVLYIGSPKTGTSQREIPLPDFMIPRLKEKKREAGCYLLTGRTGCMEPRGVQRRFKN,not soluble
15,MAHERAGQLAQPQDLIDIAEVVTAYYTRTPDADNPDQQVAFGTSGHRGSSLDTAFNENHILAITQAIVEYRAQHHIGGPIFIGRDTHALSEPAMISALEVLLAHGIEVLVDDRGRYTPTPAVSHAILAYNAQRSDSSQYSDGIVITPSHNPPRDGGFKYNPPNGGPADTDATDWIADRANTLLREGLVSVKRTSVTGVLDPRAHRHNYMENYIADLPNVVDIDAIRNSGLAIGADPMGGASVDYWGAIAEKHSLNLTVVNPLVDATWRFMTLDTDGKIRMDCSSPDSMASLVHNRTKYDIATGNDADADRHGIVTPDAGLMNPNHYLAVAIDYLFSHRPQWNSSTAVGKTLVSSSMIDRVVADLGRKLVEVPVGFKWFVPGLVDGSVGFGGEESAGASFLRHNGTVWSTDKDGIILDLLASEITAVTGKTPSQRYEELAARFGSPAYARTDAPATREQKAVLKKLSPEQVTATELAGEAITAKLTTAPGNGAAIGGLKVTTENAWFAARPSGTEDKYKIYAESFLGADHLAMVQREAQNLVSDVL,not soluble
16,MNIRQAKTSDAAAIAPLFNQYREFYRQASDLQGAEAFLKARLENHESVILIAEENGEFIGFTQLYPTFSSVSMKRIYILNDLFVVPHARTKGAGGRLLSAAKDYAGQNGAKCLTLQTEHHNRKARSLYEQNGYEEDTGFVHYCLNVPAK,soluble
17,MRRGPARAAALHRAFSLHGKIAAMQRPASSSLPPLDPAASAHSASVARHLRAAIAAAGGWLPFSQWMSAALYAPGLGYYTAGATKLASPADAQGPALPAGDFVTAPELTPLFAATVARQIAQVLRATDTASVLEFGAGTGALAEGVLRALAGLDCPARYLIVEVSADLRQRQQSRLAPFGDRVQWLDQLPDAFAGCVLGNEVLDAMPATLFRWSETGVVQERGVTVDANGEFAWQDRDADAPLAQAVAQRMPPLPGYVSEINLQAEAWVRSMGLWLQRGAALLLDYGFPRSEYYHPQRAGGTLMCHLRHHAHADPFAAPGLQDITSHVDFTAMADAALAGGLQVLGYLSQARFLVNAGLLDALSQLDPADARAYAQAVAPVQKLLSEAEMGELFKVLAVGRDMPEPLLGFARGDRRGTL,not soluble
18,MPQESSDAKRIEPPRKVDFMLKPRFTNTVPDVPFDAKFMTCPFVPLGRFVEFQPAAIYRDYKHAVICDDDMGLNVDLIDLKKYDEDPIETEIDEKDNILLEDDGAAKLIAKRSQQHSKLVPWMRKTEYISTEFNRFGVTADRQETKLGYNLKKNQQVEDMYRDKQSQIDAINKTFEDVRKPVKEHYSKKGVKAVEESFVFPDFDHWKHLFAHVQFDGDTITTEFEEEDERQQARESSVIKAMEFEDQKFAAVFVPTIGCLTSFMDDLELERPFDEDMKYEFLLSREYTFKMEHLPPRDRDVFIMYHRNNVFQYNEVDCNVKMTRKPKMALSRKSKLTLTYRNPSELEQKDMNKREAELYEQPKTRKQEILEKIQEKKEEGGDSSDQSSDSDDDKPQKSRSDSSSDVSSDDDSPRKKEPTVDSDSD,not soluble
19,MVSVSVVIATLKPRDEIEAIQCLEDQTFDDFEVIVCDKSPVTRARNEGIRQSSSDKIVFLDDDSRPQPGYLEKANDVLETEAAYAGRTIHPVDDVFARHFTAHYDWGGDPCYVDHFWGCNMGVHRDVFKTVGGWDEEMGWGHEEKELARRVRSEFDIRYDPELVVDHPYASSITDYWKKQYKLETKSPYYWSKCNVSRADQLKNIFCETFDPLNYVRITPVATMIEAGSTVAKTAGRLRGFLDHTHHEEGRGGVPDIDRPSQSPERSGLEHHHHHH,not soluble
